# Measurements taken from the supplement of paper PMC10065799, “High-throughput profiling of sequence recognition by tyrosine kinases and SH2 domains using bacterial peptide display” (eLife, 2023).
# Test system: c-Src
# Test: phosphorylation enrichment, bacterial display (enrichment ratio); higher = better substrate or ligand; peptides without Tyr show the background
# 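Throughout, for SH2 binding enrichment of the phosphorylated peptide, bacterial display: peptide library displayed on the E. coli surface as eCPX fusions, selected cells deep-sequenced, score is each peptide's frequency after selection divided by its frequency in the input.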
# 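Throughout, for phosphorylation enrichment, bacterial display: 11-residue human phosphosite peptides and single-mutation variants displayed on the E. coli surface, counted by deep sequencing, each peptide's frequency after selection divided by its frequency in the unselected input library; frequency after pTyr selection over input frequency; kinase dosed for 20-30% of maximal phosphorylation in three min.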
row,Sequence,phosphorylation enrichment
1,KLQQWYREPRS [GPI_Y17_H20P],0.507
2,EESREYDRLFE [PIK3R1_Y463_K459E_YF],0.654
3,LQEQNYPAVDS [FAM114A1_Y115_L116P],0.699
4,PDKRIYQFTAS [SKAP2_Y197_A202S],0.765
5,VTRAKYFIRDE [GNAS_Y339],0.375
6,CLAQRYLIWEC [SCN5A_Y694_R689C],0.505
7,HVLEEYKPKQG [SAXO2_Y37_P34L],0.424
8,NRSSLYLVAGP [KIAA1614_Y1083],0.434
9,PQAVTYAEVKH [LILRB4_Y360_K362E],4.89
10,CTTIPYNYMCN [TP53_Y234_H233P],0.55
11,YGSSSYRGAGG [RPA2_Y14_G15R],0.412
12,SVSVNYGDQVQ [GRAP_Y101],0.429
13,MSNVPYVMNRG [ACAT1_Y161],0.478
14,MARDIYQASFF [LTK_Y672_R673Q_YF],6.07
15,AIYEGYALPHA [ACTC1_Y171_P166A],11.3
16,QPDFLYDHIQP [TRRAP_Y862],5.86
17,LGSVVYAHSKE [KCNQ2_Y226],0.413
18,NAGDFYDLFGG [PTPN11_Y63_T59A_YF],6.02
19,ECKETYHEGEC [PRKN_Y372_A371T],0.645
20,FPRAWCRRSIA [KIAA1109_Y4272_Y4272C],0.523
21,PLDGGYFTLQI [TP53_Y327_E326G],1.37
22,QCTSAYPLQPE [NANS_Y188],0.728
23,CQLENYCNGGG [INS_Y108_Y103C],0.494
24,QSSEGYGLGDR [KIAA1210_Y564],1
25,FGAHNYHPLPV [OAT_Y55_YF],0.538
26,ALAHKYDGGGG [HBB_Y146_H147D],0.478
27,YSGDYYRIQGR [DDR2_Y741],2.31
28,FGEFRYRSVIK [CFTR_Y517_D513G_YF],0.426
29,EKRDAYVSRLN [GSR_Y150],0.377

# Molecular target: Grb2 SH2 (UniProt P62993)
# Test: SH2 binding enrichment of the phosphorylated peptide, bacterial display (enrichment ratio); higher = better substrate or ligand; peptides without Tyr show the background
row,Sequence,SH2 binding enrichment
1,KLQQWYREPRS [GPI_Y17_H20P],0.999
2,LQEQNYPAVDS [FAM114A1_Y115_L116P],0.698
3,VTRAKYFIRDE [GNAS_Y339],0.989
4,NRSSLYLVAGP [KIAA1614_Y1083],0.756
5,PQAVTYAEVKH [LILRB4_Y360_K362E],0.83
6,SVSVNYGDQVQ [GRAP_Y101],0.941
7,MSNVPYVMNRG [ACAT1_Y161],0.919
8,MARDIYQASFF [LTK_Y672_R673Q_YF],0.972
9,AIYEGYALPHA [ACTC1_Y171_P166A],0.792
10,LGSVVYAHSKE [KCNQ2_Y226],0.809
11,FPRAWCRRSIA [KIAA1109_Y4272_Y4272C],0.759
12,CQLENYCNGGG [INS_Y108_Y103C],1.29
13,QSSEGYGLGDR [KIAA1210_Y564],0.695
14,ALAHKYDGGGG [HBB_Y146_H147D],0.765
15,YSGDYYRIQGR [DDR2_Y741],1.01
16,FGEFRYRSVIK [CFTR_Y517_D513G_YF],0.567
17,EKRDAYVSRLN [GSR_Y150],0.772

# Further lines, results first:
row,SH2 binding enrichment,Sequence
1,0.829,EESREYDRLFE [PIK3R1_Y463_K459E_YF]
2,0.953,PDKRIYQFTAS [SKAP2_Y197_A202S]
3,1.32,CLAQRYLIWEC [SCN5A_Y694_R689C]
4,0.762,HVLEEYKPKQG [SAXO2_Y37_P34L]
5,0.913,CTTIPYNYMCN [TP53_Y234_H233P]
6,0.877,YGSSSYRGAGG [RPA2_Y14_G15R]
7,0.964,QPDFLYDHIQP [TRRAP_Y862]
8,0.642,NAGDFYDLFGG [PTPN11_Y63_T59A_YF]
9,0.884,ECKETYHEGEC [PRKN_Y372_A371T]
10,0.71,PLDGGYFTLQI [TP53_Y327_E326G]
11,1.06,QCTSAYPLQPE [NANS_Y188]
12,0.817,FGAHNYHPLPV [OAT_Y55_YF]

# Molecular target: SHP2-C SH2
# Test: as above
row,Sequence,SH2 binding enrichment
1,KLQQWYREPRS [GPI_Y17_H20P],0.799
2,LQEQNYPAVDS [FAM114A1_Y115_L116P],0.508
3,VTRAKYFIRDE [GNAS_Y339],0.54
4,NRSSLYLVAGP [KIAA1614_Y1083],0.92
5,PQAVTYAEVKH [LILRB4_Y360_K362E],32.9
6,SVSVNYGDQVQ [GRAP_Y101],0.651
7,MSNVPYVMNRG [ACAT1_Y161],0.657
8,MARDIYQASFF [LTK_Y672_R673Q_YF],0.678
9,AIYEGYALPHA [ACTC1_Y171_P166A],0.726
10,LGSVVYAHSKE [KCNQ2_Y226],0.754
11,FPRAWCRRSIA [KIAA1109_Y4272_Y4272C],0.4
12,CQLENYCNGGG [INS_Y108_Y103C],0.888
13,QSSEGYGLGDR [KIAA1210_Y564],0.861
14,ALAHKYDGGGG [HBB_Y146_H147D],0.357
15,YSGDYYRIQGR [DDR2_Y741],0.673
16,FGEFRYRSVIK [CFTR_Y517_D513G_YF],0.426
17,EKRDAYVSRLN [GSR_Y150],0.608

# Second part, the sequence after the results:
row,SH2 binding enrichment,Sequence
1,0.473,EESREYDRLFE [PIK3R1_Y463_K459E_YF]
2,0.613,PDKRIYQFTAS [SKAP2_Y197_A202S]
3,1.65,CLAQRYLIWEC [SCN5A_Y694_R689C]
4,0.938,HVLEEYKPKQG [SAXO2_Y37_P34L]
5,1.1,CTTIPYNYMCN [TP53_Y234_H233P]
6,0.507,YGSSSYRGAGG [RPA2_Y14_G15R]
7,0.369,QPDFLYDHIQP [TRRAP_Y862]
8,0.635,NAGDFYDLFGG [PTPN11_Y63_T59A_YF]
9,0.75,ECKETYHEGEC [PRKN_Y372_A371T]
10,0.663,PLDGGYFTLQI [TP53_Y327_E326G]
11,1.09,QCTSAYPLQPE [NANS_Y188]
12,0.493,FGAHNYHPLPV [OAT_Y55_YF]

# Molecular target: c-Src SH2
# Test: as above
row,Sequence,SH2 binding enrichment
1,KLQQWYREPRS [GPI_Y17_H20P],0.5
2,LQEQNYPAVDS [FAM114A1_Y115_L116P],0.655
3,VTRAKYFIRDE [GNAS_Y339],0.358
4,NRSSLYLVAGP [KIAA1614_Y1083],0.543
5,PQAVTYAEVKH [LILRB4_Y360_K362E],2.73
6,SVSVNYGDQVQ [GRAP_Y101],0.487
7,MSNVPYVMNRG [ACAT1_Y161],0.399
8,MARDIYQASFF [LTK_Y672_R673Q_YF],0.466
9,AIYEGYALPHA [ACTC1_Y171_P166A],2.48
10,LGSVVYAHSKE [KCNQ2_Y226],0.467
11,FPRAWCRRSIA [KIAA1109_Y4272_Y4272C],0.464
12,CQLENYCNGGG [INS_Y108_Y103C],1.17
13,QSSEGYGLGDR [KIAA1210_Y564],0.419
14,ALAHKYDGGGG [HBB_Y146_H147D],0.401
15,YSGDYYRIQGR [DDR2_Y741],0.552
16,FGEFRYRSVIK [CFTR_Y517_D513G_YF],0.423
17,EKRDAYVSRLN [GSR_Y150],0.43

# Other lines, results leading:
row,SH2 binding enrichment,Sequence
1,6.69,EESREYDRLFE [PIK3R1_Y463_K459E_YF]
2,0.642,PDKRIYQFTAS [SKAP2_Y197_A202S]
3,1.28,CLAQRYLIWEC [SCN5A_Y694_R689C]
4,0.47,HVLEEYKPKQG [SAXO2_Y37_P34L]
5,5.64,CTTIPYNYMCN [TP53_Y234_H233P]
6,0.49,YGSSSYRGAGG [RPA2_Y14_G15R]
7,0.376,QPDFLYDHIQP [TRRAP_Y862]
8,0.497,NAGDFYDLFGG [PTPN11_Y63_T59A_YF]
9,0.889,ECKETYHEGEC [PRKN_Y372_A371T]
10,0.518,PLDGGYFTLQI [TP53_Y327_E326G]
11,0.594,QCTSAYPLQPE [NANS_Y188]
12,0.893,FGAHNYHPLPV [OAT_Y55_YF]
